Measured values reported in patent US20200024322A1 (Eli Lilly, published 2020).
Numbered stars: 1 amine (or outer) side, 2 acyl side, 3 side chain; on linkers, the order of the positions; unused ones are H or OH. Square brackets hold non-standard residues; d marks the D form. Side chains are listed from the residue outwards. Ends that are not written are not given here. * marks the point of attachment. C18 diacid = O=C(O)CCCCCCCCCCCCCCCCC(=O)*; αMePhe(2-F) = C[C@](N)(Cc1ccccc1F)C(=O)O; γGlu = O=C(O)[C@H](CCC(=O)[*:2])N[*:1]; αMeL = CC(C)C[C@](C)(N)C(=O)O; AEEA = NCCOCCOCC(=O)O; Aib = CC(C)(N)C(=O)O

T1: human gastric inhibitory peptide receptor (GIPR) (human), P48546
T1 chain: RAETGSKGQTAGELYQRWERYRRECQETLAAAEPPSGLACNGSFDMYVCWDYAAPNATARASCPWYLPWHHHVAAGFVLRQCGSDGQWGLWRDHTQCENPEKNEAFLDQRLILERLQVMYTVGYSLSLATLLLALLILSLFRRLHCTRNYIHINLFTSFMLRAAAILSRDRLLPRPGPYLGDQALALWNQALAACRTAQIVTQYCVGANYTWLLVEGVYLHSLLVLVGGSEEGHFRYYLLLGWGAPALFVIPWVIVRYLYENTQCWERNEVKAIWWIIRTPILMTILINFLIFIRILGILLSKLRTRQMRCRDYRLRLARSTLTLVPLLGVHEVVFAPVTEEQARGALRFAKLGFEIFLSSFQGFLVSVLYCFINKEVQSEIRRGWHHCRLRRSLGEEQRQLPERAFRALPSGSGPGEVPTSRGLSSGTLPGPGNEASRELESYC

T2: human GLP-1 receptor (GLP-1R) (human), P43220
T2 chain: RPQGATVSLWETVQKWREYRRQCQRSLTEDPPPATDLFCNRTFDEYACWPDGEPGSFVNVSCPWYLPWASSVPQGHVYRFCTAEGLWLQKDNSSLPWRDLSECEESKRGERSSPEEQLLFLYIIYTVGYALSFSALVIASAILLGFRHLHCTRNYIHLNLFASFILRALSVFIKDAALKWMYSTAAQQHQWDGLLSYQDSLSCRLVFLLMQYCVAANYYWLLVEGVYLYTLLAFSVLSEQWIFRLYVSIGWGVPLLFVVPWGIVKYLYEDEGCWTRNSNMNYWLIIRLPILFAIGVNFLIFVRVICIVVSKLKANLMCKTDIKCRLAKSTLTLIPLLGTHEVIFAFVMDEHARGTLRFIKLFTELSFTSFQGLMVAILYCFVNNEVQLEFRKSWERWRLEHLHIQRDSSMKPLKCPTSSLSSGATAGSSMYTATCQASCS

T3: human gastric inhibitory peptide receptor (GIPR) (human, UniProt P48546 22-466)
T3 sequence (looked up): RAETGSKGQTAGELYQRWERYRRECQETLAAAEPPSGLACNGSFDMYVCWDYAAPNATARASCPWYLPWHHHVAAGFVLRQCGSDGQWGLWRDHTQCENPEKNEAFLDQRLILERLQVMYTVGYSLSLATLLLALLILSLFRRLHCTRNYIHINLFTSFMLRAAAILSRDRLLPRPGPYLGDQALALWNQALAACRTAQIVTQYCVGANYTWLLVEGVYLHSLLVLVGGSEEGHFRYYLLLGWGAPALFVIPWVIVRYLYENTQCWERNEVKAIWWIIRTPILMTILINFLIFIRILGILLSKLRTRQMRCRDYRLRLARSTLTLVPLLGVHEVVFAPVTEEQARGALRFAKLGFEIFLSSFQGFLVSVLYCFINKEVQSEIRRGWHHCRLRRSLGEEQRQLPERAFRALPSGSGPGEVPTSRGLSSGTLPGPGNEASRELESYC


Key:
Experiment in all cases: cell-based or functional assay
[1] = molecular target: T1, human gastric inhibitory peptide …
[2] = molecular target: T2, human GLP-1 receptor (GLP-1R) (human), …
[3] = molecular target: human GLP-1 receptor (GLP-1R) (human, UniProt P43220 24-463)
[4] = molecular target: T3, human gastric inhibitory peptide …

Binder	hGIPR cAMP EC50 ratio [1]	hGIPR cAMP Rel EC50 [1] [nM]	hGLP1R cAMP EC50 ratio [2]	hGLP1R cAMP Rel EC50 [2] [nM]	hGLP1R cAMP EC50 ratio [3]	hGIPR cAMP EC50 ratio [4]
Y[Aib]EGT[αMePhe(2-F)]TSDHSI[αMeL]LDEK([AEEA-AEEA-γGlu-C18 diacid])AQ[Aib]HFI[dE]YLIEGGPSSG-NH2 (not fully specified) [Example 179]	0.0575	1.83	0.0169	2.7	–	–
Y[Aib]EGT[αMePhe(2-F)]TSDHSI[αMeL]LDEK([AEEA-AEEA-γGlu-C18 diacid])AQ[Aib]HFI[dE]YLIEGG-NH2 (not fully specified) [Example 180]	0.133	0.79	0.0212	2.16	–	–
XXEGTFTSDYSIXLDXKAQXAFIEXLIAGGPSSGAPPPS (D-Tyr1; Aib2; αMeL13; Orn16; K17 conjugated to (2-[2-(2-Amino-ethoxy)-ethoxy]-acetyl)2-(γ-Glu)-CO-(CH2)16-CO2H; Aib20; αMeY25; C-terminal amide (NH2))	–	–	–	–	0.199	0.976
XXEGTFTSDYSIXLDKKAQXEFIEYLIAGGPSSGAPPPS (D-Tyr1; Aib2; αMeL13; K17 conjugated to (2-[2-(2-Amino-ethoxy)-ethoxy]-acetyl)-(γ-Glu)-CO-(CH2)18-CO2H; Aib20; C-terminal amide (NH2))	–	–	–	–	0.142	0.793
XXEGTFTSDYSIXLDKKAQXEFIEXLIEGGPSSGAPPPS (D-Tyr1; Aib2; αMeL13; K17 conjugated to (2-[2-(2-Amino-ethoxy)-ethoxy]-acetyl)2-(γ-Glu)-CO-(CH2)18-CO2H; Aib20; αMeY25; C-terminal amide (NH2))	–	–	–	–	0.114	0.672
XXEGTFTSDYSIXLDXKAQXEFIEXLIEGGPSSGAPPPS (D-Tyr1; Aib2; αMeL13; Orn16; K17 conjugated to (2-[2-(2-Amino-ethoxy)-ethoxy]-acetyl)2-(γ-Glu)-CO-(CH2)18-CO2H; Aib20; αMeY25; C-terminal amide (NH2))	–	–	–	–	0.115	0.374
